Measured values taken from PMC10470053, “Diverse p120RasGAP interactions with doubly phosphorylated partners EphB4, p190RhoGAP, and Dok1” (The Journal of Biological Chemistry, 2023).
Changes are numbered by the printed parent chain. Where “and” joins values, the source holds several entries; their conditions need not be identical. Equal values may be shown once. Values belong to the binder of their own block, whether it stands above or below them. Square brackets hold non-standard residues; d marks the D form. pY = N[C@@H](Cc1ccc(OP(=O)(O)O)cc1)C(=O)O

Columns and labels:
Conditions in all cases: both partners purified
[1] = target: T1, RasGAP^2(mut)32 (RasGAP^232 with R207A in the N-SH2 domain) (human, UniProt P20936 174-444, R207 to alanine | C236 | C261 | C372 | C402); test: ITC; protein in the 190 ul sample cell, titrated 20 times with 2.5 ul peptide from the syringe; 20 mM Tris pH 8, 250 mM NaCl; Nano ITC (TA Instruments); independent binding model
T1 construct: p120RasGAP (RASA1), human, UniProt P20936, residues 174-444, mutant of RasGAP^232 in the N-SH2 domain; also called N-SH2 mutant; source: E. coli Rosetta (DE3), purified (same protocol as the WT: Ni-NTA, TEV cleavage, anion exchange, SEC)
T1 sequence (looked up): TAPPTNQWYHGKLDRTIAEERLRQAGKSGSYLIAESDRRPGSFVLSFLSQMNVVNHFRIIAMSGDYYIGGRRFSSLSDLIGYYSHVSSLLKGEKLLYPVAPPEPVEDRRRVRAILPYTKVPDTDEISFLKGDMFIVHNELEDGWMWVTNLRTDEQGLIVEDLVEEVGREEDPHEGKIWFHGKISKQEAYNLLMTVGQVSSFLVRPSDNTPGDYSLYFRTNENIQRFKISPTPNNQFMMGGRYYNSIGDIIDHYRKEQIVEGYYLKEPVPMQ

[2] = target: T2, RasGAP^232(mut) (RasGAP^232 with R398E/K400E in the C-SH2 domain) (human, UniProt P20936 174-444, R398E | K400E | C236 | C261 | C372 | C402); test: as above
T2 construct: p120RasGAP (RASA1), human, UniProt P20936, residues 174-444, mutant of RasGAP^232 in the C-SH2 domain; also called C-SH2 mutant; source: E. coli Rosetta (DE3), purified (same protocol as the WT: Ni-NTA, TEV cleavage, anion exchange, SEC)
T2 sequence (looked up): T1 sequence (looked up) with A34R, R225E, K227E

[3] = target: T3, RasGAP^232 (p120RasGAP N-SH2, SH3 and C-SH2 domains, residues 174-444) (human, UniProt P20936 174-444, C236 | C261 | C372 | C402); test: as above
T3 construct: p120RasGAP (RASA1), human, UniProt P20936, residues 174-444 (N-SH2, SH3, C-SH2), with four cysteine to serine mutations; also called WT RasGAP^232; apo RasGAP^232; source: E. coli Rosetta (DE3), purified (Ni-NTA, TEV cleavage, anion exchange, SEC)
T3 sequence (looked up): T1 sequence (looked up) with A34R

[4] = target: T4, RasGAP^232 (p120RasGAP SH2-SH3-SH2 region, residues 174-444) (human, C236S (stands in the printed letters) | C261S (stands in the printed letters) | …); test: ITC; RasGAP^232 protein (WT or mutant) in the 190 µl sample cell, peptide in the syringe, 20 injections of 2.5 µl; 20 mM Tris pH 8, 250 mM NaCl; Nano ITC (TA Instruments); blank (constant) and independent models; values of single trials, averages and stdev
T4 construct: p120RasGAP, human, UniProt P20936, residues 174-444 (N-SH2, SH3, C-SH2) with four cysteine to serine mutations; the methods say that the hexahistidine tag was cut off with TEV, so G-S of the printed stretch probably stay before T174; also called WT RasGAP^232; source: E. coli Rosetta (DE3), purified (Ni-NTA, TEV cleavage, anion exchange, SEC); not shown: His6, N-terminal, cleaved
T4 chain: T1 sequence (looked up) with A34R

[5] = target: T5, RasGAP^2(mut)32 (RasGAP^232 with R207A in the N-SH2 domain) (human, UniProt P20936 174-444, C236S | C261S | C372S | C402S | R207 to alanine); test: as above
T5 construct: p120RasGAP, human, UniProt P20936, residues 174-444; Made by site-directed mutagenesis of RasGAP^232, which holds the four cysteine to serine mutations; also called N-SH2 mutant; source: E. coli Rosetta (DE3), purified (same protocol as the WT counterpart); not shown: His6, N-terminal, cleaved
T5 sequence (looked up): T1 sequence (looked up)

[6] = target: T6, RasGAP^232(mut) (RasGAP^232 with R398E/K400E in the C-SH2 domain) (human, UniProt P20936 174-444, C236S | C261S | C372S | C402S | R398E | K400E); test: as above
T6 construct: p120RasGAP, human, UniProt P20936, residues 174-444; Made by site-directed mutagenesis of RasGAP^232, which holds the four cysteine to serine mutations; also called C-SH2 mutant; source: E. coli Rosetta (DE3), purified (same protocol as the WT counterpart); not shown: His6, N-terminal, cleaved
T6 sequence (looked up): T1 sequence (looked up) with A34R, R225E, K227E

Kd [1]: 40000 ± 20000 nM
dH [1]: -7.89 ± 1.43 kcal/mol
stoichiometry N [1]: 0.9 ± 0.2
Kd [2]: 1000 ± 300 nM
dH [2]: -5.98 ± 0.239 kcal/mol
stoichiometry N [2]: 0.75 ± 0.02
Kd [3]: 2000 ± 700 nM
dH [3]: -5.74 ± 0.717 kcal/mol
stoichiometry N [3]: 1 ± 0.1
B1: doubly phosphorylated EphB4 peptide (residues 586-602, pY590 and pY596) (peptide)
peptide: Ac-GTKV[pY]IDPFT[pY]EDPNEA-NH2
SMILES: CC[C@H](C)[C@H](NC(=O)[C@H](Cc1ccc(OP(=O)(O)O)cc1)NC(=O)[C@@H](NC(=O)[C@H](CCCCN)NC(=O)[C@@H](NC(=O)CNC(C)=O)[C@@H](C)O)C(C)C)C(=O)N[C@@H](CC(=O)O)C(=O)N1CCC[C@H]1C(=O)N[C@@H](Cc1ccccc1)C(=O)N[C@H](C(=O)N[C@@H](Cc1ccc(OP(=O)(O)O)cc1)C(=O)N[C@@H](CCC(=O)O)C(=O)N[C@@H](CC(=O)O)C(=O)N1CCC[C@H]1C(=O)N[C@@H](CC(N)=O)C(=O)N[C@@H](CCC(=O)O)C(=O)N[C@@H](C)C(N)=O)[C@@H](C)O
notes: EphB4 juxtamembrane region, UniProt P54760, residues 586-602; also called pYpY EphB4; pYpYEphB4; source: synthetic peptide, bought: GenScript

Ka [4]: 6.3e+07 M⁻¹ and 2.1e+07 M⁻¹ and 4.3e+07 M⁻¹ and 4e+07 M⁻¹
Kd [4]: 16 nM and 47 nM and 23 nM
stoichiometry N [4]: 0.9 and 0.8 and 0.7
B2: doubly phosphorylated Dok1 peptide (residues 291-322) (peptide)
peptide: Ac-SPPAL[pY]AEPLDSLRIAPCPSQDSL[pY]SDPLDST-NH2
SMILES: CC[C@H](C)[C@H](NC(=O)[C@H](CCCNC(=N)N)NC(=O)[C@H](CC(C)C)NC(=O)[C@H](CO)NC(=O)[C@H](CC(=O)O)NC(=O)[C@H](CC(C)C)NC(=O)[C@@H]1CCCN1C(=O)[C@H](CCC(=O)O)NC(=O)[C@H](C)NC(=O)[C@H](Cc1ccc(OP(=O)(O)O)cc1)NC(=O)[C@H](CC(C)C)NC(=O)[C@H](C)NC(=O)[C@@H]1CCCN1C(=O)[C@@H]1CCCN1C(=O)[C@H](CO)NC(C)=O)C(=O)N[C@@H](C)C(=O)N1CCC[C@H]1C(=O)N[C@@H](CS)C(=O)N1CCC[C@H]1C(=O)N[C@@H](CO)C(=O)N[C@@H](CCC(N)=O)C(=O)N[C@@H](CC(=O)O)C(=O)N[C@@H](CO)C(=O)N[C@@H](CC(C)C)C(=O)N[C@@H](Cc1ccc(OP(=O)(O)O)cc1)C(=O)N[C@@H](CO)C(=O)N[C@@H](CC(=O)O)C(=O)N1CCC[C@H]1C(=O)N[C@@H](CC(C)C)C(=O)N[C@@H](CC(=O)O)C(=O)N[C@@H](CO)C(=O)N[C@H](C(N)=O)[C@@H](C)O
notes: Dok1, UniProt Q99704, residues 291-322; also called pYpY Dok1; pYpYDok1; source: synthetic peptide, bought: GenScript

Ka [5]: 40000 M⁻¹ and 30000 M⁻¹ and 20000 M⁻¹
Kd [5]: 25000 nM and 32000 nM and 60000 nM and 38000 nM
stoichiometry N [5]: 0.7 and 1 and 0.9 and 1.2
Ka [6]: 900000 M⁻¹ and 700000 M⁻¹ and 1e+06 M⁻¹
Kd [6]: 1100 nM and 1500 nM and 1000 nM and 800 nM
stoichiometry N [6]: 0.8 and 0.7
Kd [4]: 1300 nM and 1500 nM and 2400 nM and 2700 nM
stoichiometry N [4]: 0.9 and 1 and 1.1
B3: doubly phosphorylated EphB4 peptide (residues 586-602) (peptide)
peptide: Ac-GTKV[pY]IDPFT[pY]EDPNEA-NH2
SMILES: CC[C@H](C)[C@H](NC(=O)[C@H](Cc1ccc(OP(=O)(O)O)cc1)NC(=O)[C@@H](NC(=O)[C@H](CCCCN)NC(=O)[C@@H](NC(=O)CNC(C)=O)[C@@H](C)O)C(C)C)C(=O)N[C@@H](CC(=O)O)C(=O)N1CCC[C@H]1C(=O)N[C@@H](Cc1ccccc1)C(=O)N[C@H](C(=O)N[C@@H](Cc1ccc(OP(=O)(O)O)cc1)C(=O)N[C@@H](CCC(=O)O)C(=O)N[C@@H](CC(=O)O)C(=O)N1CCC[C@H]1C(=O)N[C@@H](CC(N)=O)C(=O)N[C@@H](CCC(=O)O)C(=O)N[C@@H](C)C(N)=O)[C@@H](C)O
notes: EphB4, UniProt P54760, juxtamembrane residues 586-602; also called pYpY EphB4; pYpYEphB4; source: synthetic peptide, bought: GenScript
